Data taken from publication PMC2975869.

Tests used:
[1] = target: endogenous PTH1R of A10 cells (rat (endogenous in A10)) (UniProt P25961)
[2] = target: HA-tagged PTH1R (parathyroid hormone type 1 receptor), wild type (UniProt Q03431); assay: radioligand binding
[3] = target: endogenous PTH1R of A10 cells (rat (endogenous in A10)) (UniProt P25961); assay: radioligand binding

Sequence of UniProt P25961 (P25961 27-591): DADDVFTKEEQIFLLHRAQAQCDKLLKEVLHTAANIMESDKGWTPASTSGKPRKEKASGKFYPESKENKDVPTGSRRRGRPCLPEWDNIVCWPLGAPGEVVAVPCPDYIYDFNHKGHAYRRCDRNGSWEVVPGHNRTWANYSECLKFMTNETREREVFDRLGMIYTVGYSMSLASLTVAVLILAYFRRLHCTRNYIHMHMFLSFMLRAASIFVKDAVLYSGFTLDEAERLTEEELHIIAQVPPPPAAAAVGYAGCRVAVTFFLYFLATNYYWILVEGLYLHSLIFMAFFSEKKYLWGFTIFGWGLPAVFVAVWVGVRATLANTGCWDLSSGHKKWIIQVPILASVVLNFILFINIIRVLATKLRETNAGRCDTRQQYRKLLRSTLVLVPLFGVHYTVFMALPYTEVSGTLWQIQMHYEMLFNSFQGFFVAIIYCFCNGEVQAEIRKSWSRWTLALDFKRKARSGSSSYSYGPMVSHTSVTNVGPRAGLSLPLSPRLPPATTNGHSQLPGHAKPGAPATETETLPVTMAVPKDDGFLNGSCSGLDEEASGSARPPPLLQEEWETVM

| Substance | cAMP production in A10 cells in response to PTHrP(1-36), 30 min at 37 °C [1] | Total Binding (TB), cells co-transfected with EBP50 [2] | Total Binding (TB), cells co-transfected with pcDNA3 [2] | Total Binding (TB), cells transfected with EBP50 [3] | Total Binding (TB), cells transfected with pcDNA3 [3] |
| --- | --- | --- | --- | --- | --- |
| PTHrP (1-36)-NH2 (peptide) | 3 fold | – | – | – | – |
| [125I]-PTH(1-34)NH2 (peptide) | – | 1980 | 1290 | 2470 | 1550 |
